# B1: TRAIL: recombinant TRAIL (R&D Systems), positive control for apoptosis (protein, UniProt P50591 1-281, looked up)
# Tumor necrosis factor ligand …: MAMMEVQGGPSLGQTCVLIVIFTVLLQSLCVAVTYVYFTNELKQMQDKYSKSGIACFLKEDDSYWDPNDEESMNSPCWQVKWQLRQLVRKMILRTSEETISTVQEKQQNISPLVRERGPQRVAAHITGTRGRSNTLSSPNSKNEKALGRKINSWESSRSGHSFLSNLHLRNGELVIHEKGFYYIYSQTYFRFQEEIKENTKNDKQMVQYIYKYTSYPDPILLMKSARNSCWSKDAEYGLYSIYQGGIFELKENDRIFVSVTNEHLIDMDHEASFFGAFLVG
# Test system: LS174T cells
# Experiment: Apoptosis, Caspase-Glo 3/7 assay
# Format: cell-based, human
# Conditions: 50 nM recombinant TRAIL, 2 hrs
molecule,measurement,value
B1,"apoptosis (caspase 3/7), positive control",large increase in apoptosis

# From patent US8685401B2, “Methods of enhancing the response to radiation in tumor therapy using anti-DLL4 antibodies” (priority 2011, dated 2014)
